Consider 109 variants from the Human Domainome abundance scans (Beltran et al. 2025).

The chains are these.
B1: RanBP-type and C3HC4-type zinc finger-containing protein 1, residues 369 to 411; numbered along this chain, Q9BYM8 (parent)
chain: YHCKTPDCKGWCFFEDDVNEFTCPVCFHVNCLLCKAIHEQMNC
B2: Homeobox expressed in ES cells 1, residues 110 to 165; numbered along this chain, Q9UBX0 (parent)
chain: RPRTAFTQNQIEVLENVFRVNCYPGIDIREDLAQKLNLEEDRIQIWFQNRRAKLKR

± gives the uncertainty stated by the source.

One data set covers variants of B1. Briefly: abundance fitness (aPCA) (normalised: wild type 0, dead -1); higher = more abundant; growth selection in yeast, the domain comes from the species named. The settings on record: Homo sapiens.
With YHCITPDCKGWCFFEDDVNEFTCPVCFHVNCLLCKAIHEQMNC, the abundance fitness was -0.206 ± 0.14.
The same measure, in the same setting: in the case of YHCHTPDCKGWCFFEDDVNEFTCPVCFHVNCLLCKAIHEQMNC it was -0.174 ± 0.067; in that of YHCWTPDCKGWCFFEDDVNEFTCPVCFHVNCLLCKAIHEQMNC, -0.083 ± 0.065.
Same read-out and setting: in the case of YHCCTPDCKGWCFFEDDVNEFTCPVCFHVNCLLCKAIHEQMNC it was -0.201 ± 0.051.
The same measure, in the same setting: in the case of YHCMTPDCKGWCFFEDDVNEFTCPVCFHVNCLLCKAIHEQMNC it was 0.201 ± 0.062.
Regarding YHCRTPDCKGWCFFEDDVNEFTCPVCFHVNCLLCKAIHEQMNC, the abundance fitness was determined as 0.021 ± 0.041.
Still for that read-out and setting: in the case of YHCPTPDCKGWCFFEDDVNEFTCPVCFHVNCLLCKAIHEQMNC it was -0.527 ± 0.072; in that of YHCFTPDCKGWCFFEDDVNEFTCPVCFHVNCLLCKAIHEQMNC, 0.028 ± 0.09.
On to YHCETPDCKGWCFFEDDVNEFTCPVCFHVNCLLCKAIHEQMNC, for which the abundance fitness is -0.359 ± 0.064.
Same read-out and setting: in the case of YHCVTPDCKGWCFFEDDVNEFTCPVCFHVNCLLCKAIHEQMNC it was 0.051 ± 0.045.
Still for that read-out and setting: in the case of YHCLTPDCKGWCFFEDDVNEFTCPVCFHVNCLLCKAIHEQMNC it was 0.124 ± 0.044; in that of YHCGTPDCKGWCFFEDDVNEFTCPVCFHVNCLLCKAIHEQMNC, -0.222 ± 0.038; in that of YHCATPDCKGWCFFEDDVNEFTCPVCFHVNCLLCKAIHEQMNC, 0.012 ± 0.041.
The same measure, in the same setting: in the case of YHCNTPDCKGWCFFEDDVNEFTCPVCFHVNCLLCKAIHEQMNC it was -0.134 ± 0.092; in that of YHCSTPDCKGWCFFEDDVNEFTCPVCFHVNCLLCKAIHEQMNC, -0.14 ± 0.055; in that of YHCDTPDCKGWCFFEDDVNEFTCPVCFHVNCLLCKAIHEQMNC, -0.504 ± 0.11.
Consider YHRKTPDCKGWCFFEDDVNEFTCPVCFHVNCLLCKAIHEQMNC, for which the abundance fitness was -0.906 ± 0.051.
YHGKTPDCKGWCFFEDDVNEFTCPVCFHVNCLLCKAIHEQMNC: the abundance fitness was -0.826 ± 0.044.
The same measure, in the same setting: the value for YHFKTPDCKGWCFFEDDVNEFTCPVCFHVNCLLCKAIHEQMNC was -1.12 ± 0.23; that for YHEKTPDCKGWCFFEDDVNEFTCPVCFHVNCLLCKAIHEQMNC was -0.984 ± 0.16; that for YHKKTPDCKGWCFFEDDVNEFTCPVCFHVNCLLCKAIHEQMNC was -0.771 ± 0.071.
Take YHQKTPDCKGWCFFEDDVNEFTCPVCFHVNCLLCKAIHEQMNC: the abundance fitness is -0.886 ± 0.12.
With YHTKTPDCKGWCFFEDDVNEFTCPVCFHVNCLLCKAIHEQMNC, the abundance fitness was -0.937 ± 0.098.
Same read-out and setting: in the case of YHWKTPDCKGWCFFEDDVNEFTCPVCFHVNCLLCKAIHEQMNC it was -0.879 ± 0.06; in that of YHPKTPDCKGWCFFEDDVNEFTCPVCFHVNCLLCKAIHEQMNC, -1.13 ± 0.12; in that of YHDKTPDCKGWCFFEDDVNEFTCPVCFHVNCLLCKAIHEQMNC, -0.969 ± 0.1.
The same measure, in the same setting: the value for YHVKTPDCKGWCFFEDDVNEFTCPVCFHVNCLLCKAIHEQMNC was -1.32 ± 0.11; that for YHIKTPDCKGWCFFEDDVNEFTCPVCFHVNCLLCKAIHEQMNC was -0.593 ± 0.14; that for YHMKTPDCKGWCFFEDDVNEFTCPVCFHVNCLLCKAIHEQMNC was -0.978 ± 0.12.
Regarding YHNKTPDCKGWCFFEDDVNEFTCPVCFHVNCLLCKAIHEQMNC, the abundance fitness was -0.666 ± 0.14.
The same measure, in the same setting: in the case of YHLKTPDCKGWCFFEDDVNEFTCPVCFHVNCLLCKAIHEQMNC it was -0.884 ± 0.11.
For the variant YHSKTPDCKGWCFFEDDVNEFTCPVCFHVNCLLCKAIHEQMNC, the abundance fitness was -0.831 ± 0.082.
In the case of FHCKTPDCKGWCFFEDDVNEFTCPVCFHVNCLLCKAIHEQMNC, the abundance fitness was -0.282 ± 0.2.
Turning to DHCKTPDCKGWCFFEDDVNEFTCPVCFHVNCLLCKAIHEQMNC, the abundance fitness is 0.004 ± 0.33.
For the variant GHCKTPDCKGWCFFEDDVNEFTCPVCFHVNCLLCKAIHEQMNC, the abundance fitness was -0.331 ± 0.049.
Turning to SHCKTPDCKGWCFFEDDVNEFTCPVCFHVNCLLCKAIHEQMNC, the abundance fitness is -0.409 ± 0.085.
For the variant WHCKTPDCKGWCFFEDDVNEFTCPVCFHVNCLLCKAIHEQMNC, the abundance fitness is -0.437 ± 0.074.
With LHCKTPDCKGWCFFEDDVNEFTCPVCFHVNCLLCKAIHEQMNC, the abundance fitness was -0.453 ± 0.14.
Take THCKTPDCKGWCFFEDDVNEFTCPVCFHVNCLLCKAIHEQMNC: the abundance fitness is -0.24 ± 0.06.
Regarding NHCKTPDCKGWCFFEDDVNEFTCPVCFHVNCLLCKAIHEQMNC, the abundance fitness is -0.408 ± 0.069.
Regarding KHCKTPDCKGWCFFEDDVNEFTCPVCFHVNCLLCKAIHEQMNC, the abundance fitness was -0.336 ± 0.095.
In the case of VHCKTPDCKGWCFFEDDVNEFTCPVCFHVNCLLCKAIHEQMNC, the abundance fitness is -0.265 ± 0.06.
In the case of HHCKTPDCKGWCFFEDDVNEFTCPVCFHVNCLLCKAIHEQMNC, the abundance fitness was -0.256 ± 0.12.
IHCKTPDCKGWCFFEDDVNEFTCPVCFHVNCLLCKAIHEQMNC: the abundance fitness amounted to 0.051 ± 0.2.
On the same count and under the same terms, in the case of CHCKTPDCKGWCFFEDDVNEFTCPVCFHVNCLLCKAIHEQMNC it was -0.509 ± 0.11; in that of MHCKTPDCKGWCFFEDDVNEFTCPVCFHVNCLLCKAIHEQMNC, 0.028 ± 0.099; in that of AHCKTPDCKGWCFFEDDVNEFTCPVCFHVNCLLCKAIHEQMNC, -0.18 ± 0.093.
On the same count and under the same terms, the value for YDCKTPDCKGWCFFEDDVNEFTCPVCFHVNCLLCKAIHEQMNC was -0.275 ± 0.11; that for YNCKTPDCKGWCFFEDDVNEFTCPVCFHVNCLLCKAIHEQMNC was 0.104 ± 0.1.
The same measure, in the same setting: in the case of YYCKTPDCKGWCFFEDDVNEFTCPVCFHVNCLLCKAIHEQMNC it was 0.105 ± 0.07.
For YCCKTPDCKGWCFFEDDVNEFTCPVCFHVNCLLCKAIHEQMNC, the abundance fitness was -0.103 ± 0.069.
Still for that read-out and setting: in the case of YGCKTPDCKGWCFFEDDVNEFTCPVCFHVNCLLCKAIHEQMNC it was -0.568 ± 0.051; in that of YSCKTPDCKGWCFFEDDVNEFTCPVCFHVNCLLCKAIHEQMNC, -0.072 ± 0.05.
Take YICKTPDCKGWCFFEDDVNEFTCPVCFHVNCLLCKAIHEQMNC: the abundance fitness was -0.265 ± 0.14.
Same read-out and setting: in the case of YRCKTPDCKGWCFFEDDVNEFTCPVCFHVNCLLCKAIHEQMNC it was 0.035 ± 0.041; in that of YMCKTPDCKGWCFFEDDVNEFTCPVCFHVNCLLCKAIHEQMNC, -0.031 ± 0.059.
Still for that read-out and setting: in the case of YQCKTPDCKGWCFFEDDVNEFTCPVCFHVNCLLCKAIHEQMNC it was 0.091 ± 0.053; in that of YKCKTPDCKGWCFFEDDVNEFTCPVCFHVNCLLCKAIHEQMNC, 0.095 ± 0.062.
For YLCKTPDCKGWCFFEDDVNEFTCPVCFHVNCLLCKAIHEQMNC, the abundance fitness is -0.233 ± 0.056.
Regarding YECKTPDCKGWCFFEDDVNEFTCPVCFHVNCLLCKAIHEQMNC, the abundance fitness is -0.554 ± 0.07.
Same read-out and setting: in the case of YTCKTPDCKGWCFFEDDVNEFTCPVCFHVNCLLCKAIHEQMNC it was -0.149 ± 0.059.
Take YVCKTPDCKGWCFFEDDVNEFTCPVCFHVNCLLCKAIHEQMNC: the abundance fitness was -0.739 ± 0.071.
On the same count and under the same terms, in the case of YFCKTPDCKGWCFFEDDVNEFTCPVCFHVNCLLCKAIHEQMNC it was 0.029 ± 0.074.
Same read-out and setting: in the case of YACKTPDCKGWCFFEDDVNEFTCPVCFHVNCLLCKAIHEQMNC it was -0.285 ± 0.044.

Variants of B2 are the subject of the next data set. The data set is described as above. The settings on record: Homo sapiens.
Consider R56V, for which the abundance fitness is -0.171 ± 0.27.
Consider R56D, for which the abundance fitness came out at 0.686 ± 0.31.
Same read-out and setting: the value for R56W was 0.617 ± 0.15.
Take R56C: the abundance fitness was 0.033 ± 0.1.
The same measure, in the same setting: in the case of R56G it was 0.104 ± 0.25.
Same read-out and setting: in the case of I45Y it was 0.019 ± 0.26; in that of N49D, 0.044 ± 0.11.
On to N49T, for which the abundance fitness is -0.019 ± 0.11.
Still for that read-out and setting: the value for N49H was -0.232 ± 0.31.
N49R: the abundance fitness was -0.291 ± 0.14.
With N49F, the abundance fitness is -0.604 ± 0.41.
On the same count and under the same terms, the value for N49S was -0.198 ± 0.16.
On the same count and under the same terms, the value for N49A was 0.217 ± 0.13; that for N49K was -0.102 ± 0.23; that for N49L was -0.19 ± 0.1.
As to N49P, the abundance fitness was -0.648 ± 0.34.
Still for that read-out and setting: in the case of N49M it was 0.052 ± 0.2.
The same measure, in the same setting: the value for N49E was 0.43 ± 0.12; that for N49Q was -0.124 ± 0.37; that for N49C was -0.425 ± 0.088.
In the case of N49W, the abundance fitness is -0.471 ± 0.11.
Same read-out and setting: the value for N49I was -0.46 ± 0.23.
On the same count and under the same terms, in the case of N49G it was -0.527 ± 0.093.
K55G: the abundance fitness is -0.302 ± 0.21.
For the variant K55E, the abundance fitness was found to be 0.334 ± 0.17.
Consider K55H, for which the abundance fitness was -0.27 ± 0.12.
The same measure, in the same setting: in the case of K55A it was -0.451 ± 0.24.
Regarding K55L, the abundance fitness was -0.583 ± 0.23.
Consider K55I, for which the abundance fitness is 0.143 ± 0.15.
Still for that read-out and setting: in the case of K55Y it was -0.479 ± 0.35; in that of K55F, -0.349 ± 0.46.
On the same count and under the same terms, the value for K55P was -0.042 ± 0.19.
The same measure, in the same setting: the value for K55M was -0.181 ± 0.078.
On to K55V, for which the abundance fitness was -0.672 ± 0.37.
The same measure, in the same setting: in the case of K55N it was -0.068 ± 0.31; in that of K55R, -0.369 ± 0.089; in that of K55S, -0.399 ± 0.12.
The same measure, in the same setting: in the case of K55D it was -0.419 ± 0.37; in that of R50A, -0.206 ± 0.083; in that of R50H, -0.242 ± 0.34.
As for R50M, the abundance fitness is -0.38 ± 0.26.
The same measure, in the same setting: in the case of R50C it was -0.614 ± 0.3.
Still for that read-out and setting: in the case of R50G it was -0.782 ± 0.13; in that of R50S, -0.666 ± 0.22.
Regarding R50E, the abundance fitness stood at 0.178 ± 0.071.
